Assay results as given in patent US9951356B2, “Processes to prepare elongated 2-ketoacids and C6-C10 compounds therefrom via genetic modifications to microbial metabolic pathways” (Dow Global Technologies LLC, priority 2013, dated 2018).
Numbering of substitutions follows the chain as printed. Names and notes keep the numbering of the source.

B1: L96G: E. coli LeuB variant with Leu-96 replaced with glycine (protein, UniProt P30125 2-363, looked up, variant L96G)
3-isopropylmalate …: SKNYHIAVLPGDGIGPEVMTQALKVLDAVRNRFAMRITTSHYDVGGAAIDNHGQPLPPATVEGCEQADAVLFGSVGGPKWEHLPPDQQPERGALGPLRKHFKLFSNLRPAKLYQGLEAFCPLRADIAANGFDILCVRELTGGIYFGQPKGREGSGQYEKAFDTEVYHRFEIERIARIAFESARKRRHKVTSIDKANVLQSSILWREIVNEIATEYPDVELAHMYIDNATMQLIKDPSQFDVLLCSNLFGDILSDECAMITGSMGMLPSASLNEQGFGLYEPAGGSAPDIAGKNIANPIAQILSLALLLRYSLDADDAACAIERAINRALEEGIRTGDLARGAAAVSTDEMGDIIARYVAEGV
B2: V198A: E. coli LeuB variant with Val-198 replaced with alanine (protein, UniProt P30125 2-363, looked up, variant V198A)
3-isopropylmalate …: B1 3-isopropylmalate … with G95L, V197A
B3: L96A/V198A: E. coli LeuB variant with Leu-96 and Val-198 both replaced with alanine (protein, UniProt P30125 2-363, looked up, variant L96A V198A)
3-isopropylmalate …: B1 3-isopropylmalate … with G95A, V197A
B4: L96G/V198A: E. coli LeuB variant with Leu-96 replaced with glycine and Val-198 with alanine (protein, UniProt P30125 2-363, looked up, variant L96G V198A)
3-isopropylmalate …: B1 3-isopropylmalate … with V197A
B5: L96A: E. coli isopropylmalate dehydrogenase (LeuB) with Leu-96 replaced with alanine (protein, UniProt P30125 2-363, looked up, variant L96A)
3-isopropylmalate …: B1 3-isopropylmalate … with G95A
B6: Wild type LeuB: native E. coli LeuB (isopropylmalate dehydrogenase), SEQ ID 2, histidine-tagged (protein, UniProt P30125 2-363, looked up)
3-isopropylmalate …: B1 3-isopropylmalate … with G95L
B7: L96G/V198G: E. coli LeuB variant with Leu-96 and Val-198 both replaced with glycine (protein, UniProt P30125 2-363, looked up, variant L96G V198G)
3-isopropylmalate …: B1 3-isopropylmalate … with V197G
B8: V198G: E. coli LeuB variant with Val-198 replaced with glycine (protein, UniProt P30125 2-363, looked up, variant V198G)
3-isopropylmalate …: B1 3-isopropylmalate … with G95L, V197G
B9: L96V/V198G: E. coli LeuB variant with Leu-96 replaced with valine and Val-198 with glycine (protein, UniProt P30125 2-363, looked up, variant L96V V198G)
3-isopropylmalate …: B1 3-isopropylmalate … with G95V, V197G
B10: L96V: E. coli LeuB variant with Leu-96 replaced with valine (protein, UniProt P30125 2-363, looked up, variant L96V)
3-isopropylmalate …: B1 3-isopropylmalate … with G95V

Test: HTP LeuB kinetic assay, oxidative decarboxylation of 3-HM
Format: biochemical
Conditions: more efficient than wild type LeuB
Procedure: (§1) The evaluation of the LeuB variants is performed in two steps using the high-throughput enzyme assay described below. Initially, all of the variants are screened for activity against a single high concentration of 3-IPM, 3-BM and 3-HM. Following the initial evaluation, detailed kinetic analysis is performed on a select number of variants to determine the maximal rate (kcat), Michaelis-Menten constant (KM), and the catalytic efficiency of the variant enzymes (kcat/KM).
(§2) A suitable spectrophotometric LeuB enzyme assay is adapted into a high-throughput format in 96-well plates for the kinetic evaluation of LeuB and its variants (shown in Table 1) against 3-isopropylmalate (3-IPM), 3-butylmalate (3-BM), and 3-hexylmalate (3-HM). See, for example, Hsu, Y.; Kohlhaw, G. B. “Leucine biosynthesis in Saccharomyces cerevisiae. Purification and characterization of beta-isopropylmalate dehydrogenase,” J. Biol. Chem., 1980, 255:7255-7260. Steady state kinetic parameters (kcat, KM and kcat/KM) for the oxidative decarboxylation of the three substrates by the variants are determined in these experiments.
(§3) The HTP kinetic assay involves incubating eight varied concentrations, of 3-IPM (from 0 to 1.2 mM) or 3-BM (from 0 to 2 mM) or 3-HM (from 0 to 2 mM), with 2 mM NAD^+ in LeuB assay buffer (50 mM HEPES, pH 8.0, containing 30 mM KCl and 5 mM MgCl2) at 25° C. The reaction is started by adding from 0.008 μg to 0.5 μg of LeuB variant which has been pre-diluted in assay buffer containing 1 mM DTT and 1 mg/mL BSA. The plate containing the 200 μl of reaction mixture is centrifuged at 2500×g for 15 sec and the absorbance change is followed spectrophotometrically at 340 nm on a BioTek™ plate reader maintained at 25° C. Initial velocity of the enzyme reaction is calculated from the rate of NADH production at 340 nm and using the extinction coefficient of NADH (6.22 mM^−1cm^−1). The kinetic parameters (kcat, KM and kcat/KM) of oxidative decarboxylation of 3-alkylmalate are determined by fitting the data to the Michaelis-Menten equation using nonlinear regression performed using the GraphPad Prism™ software. Table 3 lists the kinetic parameters of the wild type and engineered variants against the three substrates. The amount of enzyme in the reaction mixture is determined using the 660 nm total protein assay kit acquired from Pierce Biotechnology Inc.™, using BSA as the standard.
With B1 the “increase in efficiency of capturing 3-HM compared with the wild type enzyme” value (“increase in efficiency of capturing 3-HM” for short) was 80 fold.
In the case of B2, the “increase in efficiency of capturing 3-HM” value is reported as 5 fold.
With B3 the “increase in efficiency of capturing 3-HM” value was 12 fold.
In the case of B4, the “increase in efficiency of capturing 3-HM” value is reported as 102 fold.

Same assay, conditions: substrate 3-HM; mean ± S.D.
B5 showed a Km of 240 ± 40 µM and a kcat of 0.683 ± 0.0083 s⁻¹.
With B1 the Km was 30 ± 3 µM and the kcat was 7.58 ± 0.167 s⁻¹.
Work on B2 yielded a Km of 110 ± 10 µM and a kcat of 1.62 ± 0.55 s⁻¹.
B3 showed a Km of 80 ± 10 µM and a kcat of 2.65 ± 0.067 s⁻¹.
In the case of B4, the Km is reported as 50 ± 0.5 µM and the kcat is reported as 14.6 ± 0.383 s⁻¹.
Work on B6 yielded a Km of 160 ± 20 µM and a kcat of 0.433 ± 0.033 s⁻¹.

Test: HTP screening assay of LeuB variants, 3-BM
Format: biochemical
Conditions: 1 mM 3-BM, 2 mM NAD+, pH 8.0, 25° C.; mean of duplicates
Procedure: as §1, §2
(§4) The HTP screening assay involves incubating 750 micromoles (μM) of 3-IPM, 1 mM 3-BM or 1 mM 3-HM, with 2 mM nicotinamide adenine dinucleotide (NAD^+) in LeuB assay buffer (50 mM 4-(2-hydroxyethyl) piperazine-1-ethanesulfonic acid (HEPES), pH 8.0, containing 30 mM potassium chloride (KCl) and 5 mM magnesium chloride (MgCl2)) at 25° C. The reaction is started by the addition at 25° C. of working enzyme stock containing from 0.3 microgram (μg) to 1.1 μg of LeuB variant diluted in assay buffer containing 1 mM DTT and 1 milligram per milliliter (mg/mL) bovine serum albumin (BSA). The plate containing the 200 μL of reaction mixture is centrifuged at 2500×g for 15 seconds (sec) and the absorbance change of the reaction mixture is followed spectrophotometrically at 340 nm on a BioTek™ plate reader, pre-equilibrated at 25° C. Initial velocity of the enzyme reaction is calculated from the rate of NADH production at 340 nm and using the extinction coefficient of NADH (6.22 per millimolar per centimeter (mM^−1cm^−1)). The activity of all the variants is normalized with the amount of enzyme present in the reaction mixture and expressed as nanomoles per minute per microgram (nmol·min^−1·μg^−1) (Table 2). Protein concentrations for normalizing the activities are determined using the 660 nm total protein assay kit acquired from Pierce Biotechnology Inc.™, available from Thermo Fisher Scientific, Inc., and using BSA as the standard.
For B5, the “Specific activity, 3-BM” value was 9.48 nmol/min/µg.
For B1, the “Specific activity, 3-BM” value was 1.5 nmol/min/µg.
For B2, the “Specific activity, 3-BM” value was 1.81 nmol/min/µg.
In the case of B3, the “Specific activity, 3-BM” value is reported as 1.26 nmol/min/µg.
With B4 the “Specific activity, 3-BM” value was 1.49 nmol/min/µg.
In the case of B7, the “Specific activity, 3-BM” value is reported as 0.08 nmol/min/µg.
With B6 the “Specific activity, 3-BM” value was 4.3 nmol/min/µg.
With B8 the “Specific activity, 3-BM” value was 1.83 nmol/min/µg.
In the case of B9, the “Specific activity, 3-BM” value is reported as 0.04 nmol/min/µg.

Test: HTP screening assay of LeuB variants, 3-HM
Format: biochemical
Conditions: 1 mM 3-HM, 2 mM NAD+, pH 8.0, 25° C.; mean of duplicates
Procedure: as §1, §2, §4
For B5, the “Specific activity, 3-HM” value was 0.77 nmol/min/µg.
For B1, the “Specific activity, 3-HM” value was 9.5 nmol/min/µg.
For B2, the “Specific activity, 3-HM” value was 2.5 nmol/min/µg.
In the case of B3, the “Specific activity, 3-HM” value is reported as 3.3 nmol/min/µg.
With B4 the “Specific activity, 3-HM” value was 20.4 nmol/min/µg.
In the case of B7, the “Specific activity, 3-HM” value is reported as 3.6 nmol/min/µg.
For B6, the “Specific activity, 3-HM” value was 0.68 nmol/min/µg.
In the case of B8, the “Specific activity, 3-HM” value is reported as 0.5 nmol/min/µg.

Same assay, conditions: screening at single high concentration
With B5 the “activity against 3-HM compared with the wild type enzyme” value was “higher activity than the wild type enzyme”.
In the case of B1, the “activity against 3-HM compared with the wild type enzyme” value is reported as “higher activity than the wild type enzyme”.
In the case of B2, the “activity against 3-HM compared with the wild type enzyme” value is reported as “higher activity than the wild type enzyme”.
In the case of B3, the “activity against 3-HM compared with the wild type enzyme” value is reported as “higher activity than the wild type enzyme”.
For B4, the “activity against 3-HM compared with the wild type enzyme” value was “higher activity than the wild type enzyme”.
For B7, the “activity against 3-HM compared with the wild type enzyme” value was “higher activity than the wild type enzyme”.

Test: HTP screening assay of LeuB variants, 3-IPM
Format: biochemical
Conditions: 750 μM 3-IPM, 2 mM NAD+, pH 8.0, 25° C.; mean of duplicates
Procedure: as §1, §2, §4
For B5, the “Specific activity, 3-IPM” value was 15.4 nmol/min/µg.
With B1 the “Specific activity, 3-IPM” value was 2.90 nmol/min/µg.
In the case of B2, the “Specific activity, 3-IPM” value is reported as 2.83 nmol/min/µg.
In the case of B3, the “Specific activity, 3-IPM” value is reported as 0.65 nmol/min/µg.
In the case of B7, the “Specific activity, 3-IPM” value is reported as 0.02 nmol/min/µg.
For B6, the “Specific activity, 3-IPM” value was 18.3 nmol/min/µg.
With B8 the “Specific activity, 3-IPM” value was 4.66 nmol/min/µg.
For B9, the “Specific activity, 3-IPM” value was 0.05 nmol/min/µg.
In the case of B10, the “Specific activity, 3-IPM” value is reported as 1.53 nmol/min/µg.

Test: HTP LeuB kinetic assay, oxidative decarboxylation of 3-BM
Format: biochemical
Conditions: in words
Procedure: as §1, §2, §3
In the case of B5, the “efficiency of capturing 3-BM compared with the wild type enzyme” value is reported as “modestly poor”.

Same assay, conditions: substrate 3-BM; mean ± S.D.
In the case of B5, the Km is reported as 130 ± 20 µM and the kcat is reported as 7 ± 0.367 s⁻¹.
For B1, the Km was 1900 ± 200 µM and the kcat was 3.12 ± 0.1 s⁻¹.
B4 showed a Km of 3300 ± 400 µM and a kcat of 4.47 ± 0.35 s⁻¹.
B6 gave a Km of 38 ± 13 µM and a kcat of 3.65 ± 0.333 s⁻¹.

Test: HTP LeuB kinetic assay, oxidative decarboxylation of 3-IPM
Format: biochemical
Conditions: higher for 3-IPM than for 3-HM
Procedure: as §1, §2, §3
For B6, the “catalytic efficiency for 3-IPM relative to that for 3-HM” value was 1,000 fold.

Same assay, conditions: less efficient than wild type LeuB
In the case of B5, the “decrease in efficiency of capturing 3-IPM compared with the wild type enzyme” value (shortened to “decrease in efficiency”) is reported as “approximately 4 fold”.
In the case of B1, the “decrease in efficiency” value is reported as 100 fold.
With B2 the “decrease in efficiency” value was 1,000 fold.

Same assay, conditions: substrate 3-IPM; mean ± S.D.
Molecule B5 has a Km of 16 ± 10 µM and a kcat of 11.1 ± 2.57 s⁻¹.
Molecule B6 has a Km of 9 ± 3 µM and a kcat of 23.92 ± 2.02 s⁻¹.
